Tests used:
[1] = molecular target: dog (Canis lupus) PDL1 (dPDL1) expressed on CHO-S cells (CHO-S-dPDL1) (dog (Canis lupus)); experiment: flow cytometry on CHO-S-dPDL1 cells; antibody 0.1 µg/mL
[2] = molecular target: dog (Canis lupus) PDL1 (dPDL1) expressed on CHO-S cells (CHO-S-dPDL1) (dog (Canis lupus)); experiment: flow cytometry on CHO-S-dPDL1 cells; antibody 1 µg/mL

Chain of dog (Canis lupus) PDL1 (dPDL1) expressed on CHO-S cells (CHO-S-dPDL1) (dog (Canis lupus)) (chain, as listed by the source limits assumed, form in doubt): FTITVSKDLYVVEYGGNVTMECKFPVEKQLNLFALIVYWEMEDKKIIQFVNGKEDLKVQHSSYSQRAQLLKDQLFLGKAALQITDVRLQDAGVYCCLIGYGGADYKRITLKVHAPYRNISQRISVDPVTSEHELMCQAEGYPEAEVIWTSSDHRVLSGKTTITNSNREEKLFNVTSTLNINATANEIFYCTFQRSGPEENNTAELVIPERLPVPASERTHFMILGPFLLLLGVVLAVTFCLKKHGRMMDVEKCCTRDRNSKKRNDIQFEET

Percentage of Positive Cells (%) [1] [%]	Percentage of Positive Cells (%) [2] [%]	Binder
53.1	70.7	B20B02-N297A (antibody, human IgG1, V domains shown) VH: QVQLQQSGGGVVQPGRSLRLSCAASGFTFSTYGMHWVRQAPGKGLEWVAALSFDGGNIYYGDSVKGRFTISRDNSKNTLYLQMNSLRAEDTALYYCAKARLPYSYDAVDYWGQGTLVTVSS VL: EIVMTQSPATLSVSPGERATLSCRASQSVSSNLAWYQQKPGQAPRLLIYDTSTRAIGIPARFSGSGSGTEFTLTISSLQSEDFAIYYCHQYNFWPPITLGQGTRLEIK
51	67.8	B22E02-N297A (antibody, human IgG1, V domains shown) VH: QVQLVQSGGGLVQPGRSLRLSCRASGFTFDGYSMNWVRQAPGKGLEWVGFIRSKGYGGTSESAASVKGRFTISRDDSKSIAYLQMNSLKTEDTAVYYCTRTRNWNDEGYFDYWGLGTLVTVSS VL: DIQMTQSPSSLSASVGDRVTITCQASQDINKYLNWYQQKPGKAPKLLIYDASNSETGVPSRFSGSGSGTDFTFTISSLQPEDISTYYCQQYDILPITFGQGTRLEIK
50.5	62.5	B21A06-N297A (antibody, human IgG1, V domains shown) VH: QVQLQESGGDVVQPGRSLRLSCAASGFTFNNYGMHWVRQAPSKGLEWVAFIWYDGSNKYYGDSVKGRFTISRDNSKNTLYLQMNSLRAEDTALYYCARGDNWNSDAFDIWGPGTMVTVSS VL: EIVMTQSPLSLPVTLGQPASISCRSSQSLVYTNGNTYLNWFQQRPGQSPRRLIYKVSSRDSGVPDRFSGSGSGTDFTLKISRVAAEDVGLYYCMQGTHWPLTFGGGTKVEIK
